Data published in PMC1084328 (Nucleic Acids Research, 2005).
Read-outs that look alike come from different tables or passages of the source.

Tests used:
RecN [1] = biological target: T1, RecN (Bacillus subtilis, UniProt P17894); experiment: EMSA, nucleotide-dependent RecN-ssDNA complex; type: binding
T1 sequence (P17894 1-576): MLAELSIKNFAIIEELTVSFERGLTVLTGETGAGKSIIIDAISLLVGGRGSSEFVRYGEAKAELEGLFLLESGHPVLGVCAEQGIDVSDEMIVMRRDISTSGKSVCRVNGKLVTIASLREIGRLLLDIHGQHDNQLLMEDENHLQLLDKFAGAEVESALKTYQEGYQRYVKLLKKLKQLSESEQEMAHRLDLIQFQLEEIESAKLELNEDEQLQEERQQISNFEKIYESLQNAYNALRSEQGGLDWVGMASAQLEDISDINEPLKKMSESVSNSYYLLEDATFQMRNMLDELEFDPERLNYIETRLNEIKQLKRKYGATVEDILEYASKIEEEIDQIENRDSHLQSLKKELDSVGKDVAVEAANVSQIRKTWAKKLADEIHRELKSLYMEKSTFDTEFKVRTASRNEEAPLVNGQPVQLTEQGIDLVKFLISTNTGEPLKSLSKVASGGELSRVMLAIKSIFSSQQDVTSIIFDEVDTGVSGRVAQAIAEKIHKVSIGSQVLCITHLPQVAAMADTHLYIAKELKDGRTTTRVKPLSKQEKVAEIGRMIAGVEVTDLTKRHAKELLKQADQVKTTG

[2] = biological target: T2, RecN, high-S gradient fraction 1 (presumed octamer) (Bacillus subtilis, UniProt P17894 1-576); experiment: EMSA
T2 sequence: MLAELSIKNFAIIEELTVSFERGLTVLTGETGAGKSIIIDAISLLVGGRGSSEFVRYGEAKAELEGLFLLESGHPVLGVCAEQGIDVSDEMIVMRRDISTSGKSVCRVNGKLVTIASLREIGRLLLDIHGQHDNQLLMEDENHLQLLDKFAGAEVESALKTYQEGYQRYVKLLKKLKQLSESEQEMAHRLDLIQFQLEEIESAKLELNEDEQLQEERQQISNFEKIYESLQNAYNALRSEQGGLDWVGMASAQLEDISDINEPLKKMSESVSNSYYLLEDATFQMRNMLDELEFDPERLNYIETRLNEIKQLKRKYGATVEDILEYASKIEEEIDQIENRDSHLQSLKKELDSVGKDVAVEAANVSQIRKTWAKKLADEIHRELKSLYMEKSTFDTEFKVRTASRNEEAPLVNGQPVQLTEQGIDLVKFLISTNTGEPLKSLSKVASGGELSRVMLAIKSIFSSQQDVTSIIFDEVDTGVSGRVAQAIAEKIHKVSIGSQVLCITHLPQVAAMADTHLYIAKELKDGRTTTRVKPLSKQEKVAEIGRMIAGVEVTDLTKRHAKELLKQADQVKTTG

RecN [3] = biological target: T3, RecN (Bacillus subtilis, UniProt P17894 1-576); experiment: EMSA
T3 sequence: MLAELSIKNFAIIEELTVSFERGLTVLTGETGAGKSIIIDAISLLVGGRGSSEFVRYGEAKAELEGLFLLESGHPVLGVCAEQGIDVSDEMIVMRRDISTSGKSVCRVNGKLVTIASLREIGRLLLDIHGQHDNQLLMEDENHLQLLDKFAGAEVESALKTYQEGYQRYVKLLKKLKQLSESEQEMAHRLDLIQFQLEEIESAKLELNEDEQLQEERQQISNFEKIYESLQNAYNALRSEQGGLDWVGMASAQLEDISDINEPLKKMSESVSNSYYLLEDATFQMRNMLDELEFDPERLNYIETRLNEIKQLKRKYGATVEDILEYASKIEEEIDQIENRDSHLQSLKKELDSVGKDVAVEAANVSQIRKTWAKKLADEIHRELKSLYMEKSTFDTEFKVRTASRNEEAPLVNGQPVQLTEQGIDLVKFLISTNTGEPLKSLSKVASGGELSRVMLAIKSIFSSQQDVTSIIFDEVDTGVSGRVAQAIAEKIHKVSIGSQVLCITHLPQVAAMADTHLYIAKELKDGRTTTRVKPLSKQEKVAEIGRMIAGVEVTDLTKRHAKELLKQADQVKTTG

RecN [4] = biological target: T3, RecN; experiment: EMSA; remark: listed apart in the source
RecN [5] = biological target: T3, RecN; experiment: EMSA; remark: listed apart in the source

Nc1ncnc2c1ncn2[C@H]1C[C@H](O)[C@@H](COP(=O)(O)OP(=O)(O)OP(=O)(O)O)O1 [dATP]
EMSA, nucleotide-dependent RecN-ssDNA complex (CII/CIII) assembly (RecN [1]; labelled ssDNA60 1 nM, RecN 10 nM, 2 mM MgCl2, pH 7.5, 2% PEG-6000, 37 °C, dATP 1 mM): also when ADP or dATP was present CIII and CII were formed

Nc1ncnc2c1ncn2[C@@H]1O[C@H](COP(=O)(O)OP(=O)(O)OP(O)(O)=S)[C@@H](O)[C@H]1O [ATPγS]
EMSA, nucleotide-dependent RecN-ssDNA complex (CII/CIII) assembly (RecN [1]; weakly hydrolysable analogue, ssDNA60, 2 mM MgCl2, pH 7.5, 37 °C): weakly hydrolysable analogue (ATPγS) present, CII and CIII formation was observed

B1: ssDNA60 (ssDNA)
DNA: CTCCTATTATGCTCAACTTAAATGACCTACTCTATAAAGCTATAGTACTGCTATCTAATC
binding result [2]: binds | binding result (RecN [3]): binds

B2: dsDNA60 (dsDNA)
DNA 1: CTCCTATTATGCTCAACTTAAATGACCTACTCTATAAAGCTATAGTACTGCTATCTAATC
DNA 2: GATTAGATAGCAGTACTATAGCTTTATAGAGTAGGTCATTTAAGTTGAGCATAATAGGAG
binding result (RecN [4]): no binding

CTCCTATTATGCTCA (ssDNA) [ssDNA15]
binding result (RecN [5]): no binding
